In US20210371455A1, “METHODS AND COMPOSITIONS COMPRISING REDUCED LEVEL OF HOST CELL PROTEINS” (Regeneron Pharmaceuticals, Inc., priority 2019, published 2021):

What was measured:
Type in all cases: biochemical
[1] = PS20 degradation by recombinant SIAE (2D-LC-CAD)
Method: Two-Dimensional Liquid Chromatography-Charged Aerosol detector (CAD)/Mass Spectrometry (MS) Assay to Detect Polysorbate Degradation. Degradation of PS20 and PS80 in CHO cell-free media or formulated antibody were analyzed by two-dimensional HPLC-CAD/MS system. The details of the setup were previously described by Genentech (Yi Li et al., Characterization and Stability Study of Polysorbate 20 in Therapeutic Monoclonal Antibody Formulation by Multidimensional Ultrahigh-Performance Liquid Chromatography-Charged Aerosol Detection-Mass Spectrometry, 86 ANALYTICAL CHEMISTRY 5150-5157 (2014)). […]
The 2D-LC system was set up with Thermo UltiMate 3000 and coupled with Corona Ultra CAD detector. Operating at nitrogen pressure of 75 psi for quantitation. […]
(§1) Peak area of each ester was obtained from the CAD detector and added up to account for intact PS20 or PS80. The remaining percentage of PS20 or PS80 used in this work was calculated by comparing sum of the peak area of monoester eluting between 27.5 min and 33 min at each time point to sum of peak areas at time zero. Relative percent of different order ester or total esters can be calculated similarly.
Hydrolysis of Polysorbate 20 with Sialate O-acetylesterase (SIAE) and Formulated Antibody. […] The influence of pH on the rate of PS20 degradation was determined by evaluating activity at 5.3, 6.0 and 8.0 in acetate, histidine and citrate buffer system.

[2] = PS20 incubated with LAL and SIAE (CAD profile); conditions: 0.2% PS20 with 10 ppm LAL and 10 ppm SIAE together, after 5 days
Method: To examine the effect of both SIAE and LAL on PS20, 10 ppm of LAL and 10 ppm of SIAE were incubated with a solution comprising 0.2% PS20. Polysorbate in formulated mAbs were detected and identified as shown in Example 1.

[3] = PS80 degradation by spiked-in recombinant SIAE (2D-LC-CAD); conditions: 0.1% PS80, SIAE 50 ppm, 5 days at 45° C.
Method: Two-Dimensional Liquid Chromatography-Charged Aerosol detector (CAD)/Mass Spectrometry (MS) Assay to Detect Polysorbate Degradation. Degradation of PS20 and PS80 in CHO cell-free media or formulated antibody were analyzed by two-dimensional HPLC-CAD/MS system. The details of the setup were previously described by Genentech (Yi Li et al., Characterization and Stability Study of Polysorbate 20 in Therapeutic Monoclonal Antibody Formulation by Multidimensional Ultrahigh-Performance Liquid Chromatography-Charged Aerosol Detection-Mass Spectrometry, 86 ANALYTICAL CHEMISTRY 5150-5157 (2014)). Polysorbates were separated from formulated mAb by using Oasis MAX column (20 mm×2.1 mm, 30 μm, Waters, Milford, Mass., U.S.A.). Initial condition was set at 1% solvent B (0.1% formic acid in acetonitrile) and held for 1 min. It was increased to 20% in 1.5 minutes and dropped back down to 1% in 1.5 minutes. […]
as §1

[4] = PS80 degradation by LAL; conditions: LAL 10 ppm and 20 ppm, 5 days at 45° C.
From the text: LAL has an ability to hydrolyze primary and higher order esters.

[5] = PS20 degradation by human PLBD2 and CHO PLBD2; conditions: PLBD2 200 μg/mL, 0.1% PS20, 45° C., 5 days
Method: (§2) Hydrolysis of Polysorbate 20 and PS80 with Putative Phospholipase B-like 2 (PLBD2) and Formulated Antibody. To evaluate the effect of PLBD2 on PS20 and PS80 degradation, 16 μL of 10 mM Histidine buffer pH 6.0 was mixed with 2 μL of 1% PS20 or 1% PS80, followed by adding 2 μL of […] PLBD2 and incubating the sample at 45° C. for 5 days. One aliquot (3 μL) of each sample was diluted twenty-five time by adding 72 μL 10 mM histidine, pH 6.0 and used for LC-CAD analysis.
(§3) Polysorbates degradation by recombinant human PLBD2 and in-house CHO PLBD2 was monitored as outlined in the Material and Methods section. Recombinant human PLBD2 and in-house CHO PLBD2 with concentration at 200 μg/mL were incubated with 0.1% of PS20 and PS80 for 5 days. […] By incubating PS20 with OriGene human PLBD2, a decrease in signal intensity occurred on POE-ester peaks eluting at between 27.5 and 38 minutes. The peaks eluted before 34 minutes were POE monoester containing short fatty acid chain, for example, POE sorbitan monolaurate, POE isosorbide monolaurate, POE sorbitan monomyristate and POE isosorbide monomyristate. […] Instead, because both PLBD2 proteins contain a high level of impurities, it is more likely that the difference in esterase activity originated from some unknown HCP impurities other than from PLBD2 itself.

[6] = PS80 degradation by human PLBD2 and CHO PLBD2; conditions: PLBD2 200 μg/mL, 0.1% PS80, 45° C., 5 days; peaks eluting between 30 and 35 minutes
Method: as §2, §3

B1: SIAE: recombinant sialate O-acetylesterase, host cell protein overexpressed and purified in CHO (protein)
chain: MVSLGSVFGLLLLLIIVRASRSAGIDFRFGSYIDNYMVLQKEPSGAVIWGFGTPGATVTVTLCQGQNTFKKKVTTVKAHSNTWVVVLDPMKPGGPYEVMAKQTFGITNVTLRIHDILFGDVWLCSGQSNMKMTVLQIFNASKELAVAAAYQSVRIFSASLVQAEEELEDLDKVDLSWSRPTAGNLGNGNYTYMSAVCWLFGRYLYDNLQYPIGLVSSSWGGTPIEAWSSKRALKSCGVPNTSNERILQTTRSECKSEGSLCPLGSFTLPPSVTGPATHSVLWNAMIHPLQKMTLKGVIWYQGESNEDLNRDLYSCMFPALIDDWRQTFHDGSQKQTERFFPFGFVQLSSYAETNTSDYRFPEIRWHQTADFGFVPNLKMPNTFMAVAMDLCDLNSPFGSIHPRDKQTVAYRLHLGARALAYGEKNLAFQGPLPKKIELLAHSRLLSLTYDQKIQVHRQDNKSFEISCCSDRLCKWLPVSVNSFSTKTLILGISACRGTVVDVRYAWTTWPCDYKQCAVYHPSNTLPAPPFTAPITYQAPRFRASDSSTQE
[1]; 0.1% PS20, SIAE 2.5 ppm, 45° C., 10 mM Histidine pH 6, 10-day incubation
  PS20 degradation: Significant PS20 degradation
[1]; SIAE directly incubated with PS20 in buffers pH 8.0, 6.0, 5.3
  pH effect on PS20 degradation by SIAE: maximum degradation at pH 6.0
[2]
  PS20 ester species degradation: all ester species degraded
[3]
  PS80 degradation: did not show any degradation

B2: LAL: lysosomal acid lipase encoded by the LIPA gene; recombinant, overexpressed in CHO cell (protein, UniProt P38571 77-399, looked up)
Lysosomal acid …: GPKPVVFLQHGLLADSSNWVTNLANSSLGFILADAGFDVWMGNSRGNTWSRKHKTLSVSQDEFWAFSYDEMAKYDLPASINFILNKTGQEQVYYVGHSQGTTIGFIAFSQIPELAKRIKMFFALGPVASVAFCTSPMAKLGRLPDHLIKDLFGDKEFLPQSAFLKWLGTHVCTHVILKELCGNLCFLLCGFNERNLNMSRVDVYTTHSPAGTSVQNMLHWSQAVKFQKFQAFDWGSSAKNYFHYNQSYPPTYNVKDMLVPTAVWSGGHDWLADVYDVNILLTQITNLVFHESIPEWEHLDFIWGLDAPWRLYNKIINLMRKYQ
[4]
  PS80 degradation: significant degradation of monoesters only
[2]
  PS20 ester species degradation: all ester species degraded

B3: human PLBD2: recombinant human putative phospholipase B-like 2 purchased from Origene (protein)
chain: IPAPGGRWARDGQVPPASRSRSVLLDVSAGQLLMVDGRHPDAVAWANLTNAIRETGWAFLELGTSGQYNDSLQAYAAGVVEAAVSEELIYMHWMNTVVNYCGPFEYEVGYCERLKSFLEANLEWMQEEMESNPDSPYWHQVRLTLLQLKGLEDSYEGRVSFPAGKFTIKPLGFLLLQLSGDLEDLELALNKTKIKPSLGSGSCSALIKLLPGQSDLLVAHNTWNNYQHMLRVIKKYWLQFREGPWGDYPLVPGNKLVFSSYPGTIFSCDDFYILGSGLVTLETTIGNKNPALWKYVRPRGCVLEWVRNIVANRLASDGATWADIFKRFNSGTYNNQWMIVDYKAFIPGGPSPGSRVLTILEQIPGMVVVADKTSELYQKTYWASYNIPSFETVFNASGLQALVAQYGDWFSYDGSPRAQIFRRNQSLVQDMDSMVRLMRYNDFLHDPLSLCKACNPQPNGENAISARSDLNPANGSYPFQALRQRSHGGIDVKVTSMSLARILSLLAASGPTWDQVPPFQWSTSPFSGLLHMGQPDLWKFAPVKVSWD
[5]
  PS20 degradation: Significant PS20 degradation
[6]
  PS80 degradation: significant degradation
